According to the supplement of paper PMC11246515:
± gives the standard deviation of the averaged measurements.

Test: total protein half-life in vivo (active degradation + dilution); higher = more stable protein
[1] = E. coli NCM3722 delta-clpP delta-lon delta-hslV, growth: N-lim chemostat, doubling time 6 h
[2] = E. coli NCM3722 delta-clpP, growth: N-lim chemostat, doubling time 6 h
[3] = E. coli NCM3722 delta-lon, growth: N-lim chemostat, doubling time 6 h
[4] = E. coli NCM3722 delta-smpB, growth: N-lim chemostat, doubling time 6 h
[5] = wild type E. coli NCM3722, growth: C-lim chemostat, doubling time 3 h
[6] = wild type E. coli NCM3722, growth: C-lim chemostat, doubling time 6 h
[7] = wild type E. coli NCM3722, growth: C-lim chemostat, doubling time 12 h
[8] = wild type E. coli NCM3722, growth: N-lim chemostat, doubling time 6 h
[9] = wild type E. coli NCM3722, growth: N-lim chemostat, doubling time 12 h
[10] = wild type E. coli NCM3722, growth: P-lim chemostat, doubling time 6 h
[11] = E. coli NCM3722 delta-hslV, growth: N-lim chemostat, doubling time 6 h
[12] = wild type E. coli NCM3722, growth: P-lim chemostat, doubling time 12 h

Sequence | total protein half-life in vivo [1] [h] | total protein half-life in vivo [2] [h] | total protein half-life in vivo [3] [h] | total protein half-life in vivo [4] [h] | total protein half-life in vivo [5] [h] | total protein half-life in vivo [6] [h] | total protein half-life in vivo [7] [h] | total protein half-life in vivo [8] [h] | total protein half-life in vivo [9] [h] | total protein half-life in vivo [10] [h] | total protein half-life in vivo [11] [h] | total protein half-life in vivo [12] [h]
MTNRISRLKTALFANTREISLERALLYTASHRQTEGEPVILRRAKATAYILEHVEISIRDEELIAGNRTVKPRAGIMSPEMDPYWLLKELDQFPTRPQDRFAISEEDKRIYREELFPYWEKRSMKDFINGQMTDEVKAATNTQIFSINQTDKGQGHIIIDYPRLLNHGLGELVAQMQQHCQQQPENHFYQAALLLLEASQKHILRYAELAETMAANCTDAQRREELLTIAEISRHNAQHKPQTFWQACQLFWYMNIILQYESNASSLSLGRFDQYMLPFYQTSLTQGEDAAFLKELLESLWVKCNDIVLLRSTSSARYFAGFPTGYTALLGGLTENGRSAVNVLSFLCLDAYQSVQLPQPNLGVRTNALIDTPFLMKTAETIRFGTGIPQIFNDEVVVPAFLNRGVSLEDARDYSVVGCVELSIPGRTYGLHDIAMFNLLKVMEICLHENEGNAALTYEGLLEQIRAKISHYITLMVEGSNICDIGHRDWAPVPLLSSFISDCLEKGRDITDGGARYNFSGVQGIGIANLSDSLHALKGMVFEQQRLSFDELLSVLKANFATPEGEKVRARLINRFEKYGNDIDEVDNISAELLRHYCKEVEKYQNPRGGYFTPGSYTVSAHVPLGSVVGATPDGRFAGEQLADGGLSPMLGQDAQGPTAVLKSVSKLDNTLLSNGTLLNVKFTPATLEGEAGLRKLADFLRAFTQLKLQHIQFNVVNADTLREAQQRPQDYAGLVVRVAGYSAFFVELSKEIQDDIIRRTAHQL | 5.49 ± 0.94 | 3.15 ± 0.29 |  |  |  |  |  |  |  |  |  | 
MKNCVIVSAVRTAIGSFNGSLASTSAIDLGATVIKAAIERAKIDSQHVDEVIMGNVLQAGLGQNPARQALLKSGLAETVCGFTVNKVCGSGLKSVALAAQAIQAGQAQSIVAGGMENMSLAPYLLDAKARSGYRLGDGQVYDVILRDGLMCATHGYHMGITAENVAKEYGITREMQDELALHSQRKAAAAIESGAFTAEIVPVNVVTRKKTFVFSQDEFPKANSTAEALGALRPAFDKAGTVTAGNASGINDGAAALVIMEESAALAAGLTPLARIKSYASGGVPPALMGMGPVPATQKALQLAGLQLADIDLIEANEAFAAQFLAVGKNLGFDSEKVNVNGGAIALGHPIGASGARILVTLLHAMQARDKTLGLATLCIGGGQGIAMVIERLN | 4.78 ± 0.92 | 3.36 | 2.93 ± 0.073 | 2.808 ± 0.0077 | 3.34 | 5.45 ± 1.1 | 8 | 2.92 ± 0.27 | 3.67 ± 0.067 | 5.43 |  | 
MNITATVLLAFGMSMDAFAASIGKGATLHKPKFSEALRTGLIFGAVETLTPLIGWGMGMLASRFVLEWNHWIAFVLLIFLGGRMIIEGFRGADDEDEEPRRRHGFWLLVTTAIATSLDAMAVGVGLAFLQVNIIATALAIGCATLIMSTLGMMVGRFIGSIIGKKAEILGGLVLIGIGVQILWTHFHG |  |  |  |  |  |  |  |  |  |  | 5.5 | 8.23
MTDLHTDVERYLRYLSVERQLSPITLLNYQRQLEAIINFASENGLQSWQQCDVTMVRNFAVRSRRKGLGAASLALRLSALRSFFDWLVSQNELKANPAKGVSAPKAPRHLPKNIDVDDMNRLLDIDINDPLAVRDRAMLEVMYGAGLRLSELVGLDIKHLDLESGEVWVMGKGSKERRLPIGRNAVAWIEHWLDLRDLFGSEDDALFLSKLGKRISARNVQKRFAEWGIKQGLNNHVHPHKLRHSFATHMLESSGDLRGVQELLGHANLSTTQIYTHLDFQHLASVYDAAHPRAKRGK [P0A8P6] | 4.56 ± 0.07 | 2.2684 ± 0.0015 | 2.36 ± 0.25 | 1.64 ± 0.28 | 1.59 ± 0.34 | 2.67 |  | 1.81 | 2.08 ± 0.12 | 1.87 ± 0.3 | 1.38 | 3.1 ± 0.58
MYTKIIGTGSYLPEQVRTNADLEKMVDTSDEWIVTRTGIRERHIAAPNETVSTMGFEAATRAIEMAGIEKDQIGLIVVATTSATHAFPSAACQIQSMLGIKGCPAFDVAAACAGFTYALSVADQYVKSGAVKYALVVGSDVLARTCDPTDRGTIIIFGDGAGAAVLAASEEPGIISTHLHADGSYGELLTLPNADRVNPENSIHLTMAGNEVFKVAVTELAHIVDETLAANNLDRSQLDWLVPHQANLRIISATAKKLGMSMDNVVVTLDRHGNTSAASVPCALDEAVRDGRIKPGQLVLLEAFGGGFTWGSALVRF [P0A6R0] | 5.01 ± 0.12 | 4.93 ± 0.2 | 5.578 ± 0.021 | 4.564 ± 0.018 | 2.89 ± 0.036 | 5.36 ± 0.51 | 9.94 ± 0.71 | 4.91 ± 0.27 | 9.3 ± 1 | 5.907 ± 0.0094 | 4.91 ± 0.11 | 12.9 ± 1.5
MTVAYIAIGSNLASPLEQVNAALKALGDIPESHILTVSSFYRTPPLGPQDQPDYLNAAVALETSLAPEELLNHTQRIELQQGRVRKAERWGPRTLDLDIMLFGNEVINTERLTVPHYDMKNRGFMLWPLFEIAPELVFPDGEMLRQILHTRAFDKLNKW |  | 4.02 | 4.82 |  | 3.22 ± 0.3 |  | 10.3 | 3.76 |  | 5.3 | 4.41 | 10.7
MSKPAITLWSDAHFFSPYVLSAWVALQEKGLSFHIKTIDLDSGEHLQPTWQGYGQTRRVPLLQIDDFELSESSAIAEYLEDRFAPPTWERIYPLDLENRARARQIQAWLRSDLMPIREERPTDVVFAGAKKAPLTAEGKASAEKLFAMAEHLLVLGQPNLFGEWCIADTDLALMINRLVLHGDEVPERLVDYATFQWQRASVQRFIALSAKQSG | 4.94 ± 0.39 | 5.5 ± 1.7 | 5.18 ± 0.9 | 4.79 ± 0.39 | 2.97 ± 0.081 | 5.9 ± 0.35 | 9.65 ± 1.6 | 4.86 ± 0.41 | 8.65 ± 0.19 | 5.764 ± 0.044 | 4.804 ± 0.025 | 12.5 ± 0.95
MSASLAILTIGIVPMQEVLPLLTEYIDEDNISHHSLLGKLSREEVMAEYAPEAGEDTILTLLNDNQLAHVSRRKVERDLQGVVEVLDNQGYDVILLMSTANISSMTARNTIFLEPSRILPPLVSSIVEDHQVGVIVPVEEMLPVQAQKWQILQKSPVFSLGNPIHDSEQKIIDAGKELLAKGADVIMLDCLGFHQRHRDLLQKQLDVPVLLSNVLIARLAAELLV [P0AE28] | 3.97 | 2.28 |  | 1.41 | 2.32 ± 0.053 | 3.15 ± 0.55 | 3.7 | 1.67 ± 0.018 |  |  |  | 7.89
